Numbering of substitutions follows the chain as printed. In names and notes the source's numbering stands. One block for each molecule: values may come before it.
Assays:
Insulin = assay: ELISA on coated insulin, OD450
[1] = biological target: T1, cynomolgus monkey CD47-Fc (cynomolgus monkey, UniProt Q08722 19-139 (human entry), limits assumed); assay: direct ELISA, coated cyno CD47-Fc, OD450
T1 construct: also called cCD47; cyno CD47-Fc; not shown: Fc part
T1 chain: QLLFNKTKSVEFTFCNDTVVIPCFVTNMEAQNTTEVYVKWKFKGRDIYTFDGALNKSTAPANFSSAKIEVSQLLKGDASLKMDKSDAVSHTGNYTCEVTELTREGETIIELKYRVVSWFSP

human CD47-Fc [2] = biological target: T2, human CD47-Fc (human, UniProt Q08722 19-139); assay: direct ELISA, coated human CD47-Fc, OD450
T2 construct: also called hCD47; human CD47-Fc protein; not shown: Fc part

human CD47-Fc [3] = biological target: T2, human CD47-Fc; assay: HTRF competition with labelled h5F9G4 IgG1 (m11) for human CD47-Fc, 665/615 ratio
[4] = biological target: T3, Cyno CD47 (Biacore steady state analysis) (cynomolgus monkey, UniProt Q08722 19-139 (human entry), limits assumed); assay: Biacore SPR, steady state affinity, monomeric Fab
T3 construct: The construct on the Biacore chip is not described (possibly CD47-Fc)
T3 chain: T1 chain

human CD47-Fc [5] = biological target: T2, human CD47-Fc; assay: direct ELISA, coated human CD47-Fc, OD450; remark: listed apart in the source
[6] = biological target: T4, cynomolgus monkey CD47 on cyno CD47-transfected CHO-K1 cells (cynomolgus monkey, UniProt Q08722 19-323 (human entry)); assay: flow cytometry, CHO-K1 cells transfected with cyno CD47, MFI
T4 construct: CHO-K1 cells stably transfected with cyno CD47 full-length cDNA; also called cyno CD47+ cells; cyno CD47+CHO-K1
T4 chain: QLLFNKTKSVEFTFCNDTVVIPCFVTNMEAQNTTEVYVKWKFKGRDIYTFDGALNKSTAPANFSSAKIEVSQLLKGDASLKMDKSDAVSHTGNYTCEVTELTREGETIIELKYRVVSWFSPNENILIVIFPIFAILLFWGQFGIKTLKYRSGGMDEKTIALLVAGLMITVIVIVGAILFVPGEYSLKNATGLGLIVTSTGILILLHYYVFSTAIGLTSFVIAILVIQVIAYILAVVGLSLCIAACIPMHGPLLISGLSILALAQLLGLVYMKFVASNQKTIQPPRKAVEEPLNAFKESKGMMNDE

human CD47-Fc [7] = biological target: T2, human CD47-Fc; assay: HTRF epitope competition; competitor Tb-labelled h5F9G4 IgG1 on biotinylated human CD47-Fc
human CD47-Fc [8] = biological target: T2, human CD47-Fc; assay: competition ELISA: human CD47-Fc binding to plate-bound human SIRPa-Fc, % binding
human CD47-Fc [9] = biological target: T2, human CD47-Fc; assay: HTRF competition with labelled h5F9G4 IgG1 (m11) for human CD47-Fc, 665/615 ratio; remark: listed apart in the source
[10] = biological target: T1, cynomolgus monkey CD47-Fc; assay: competition ELISA: cyno CD47-Fc binding to plate-bound human SIRPa-Fc, OD450
human CD47-Fc [11] = biological target: T2, human CD47-Fc; assay: competition ELISA: human CD47-Fc binding to plate-bound human SIRPa-Fc, OD450
[12] = biological target: T4, cynomolgus monkey CD47 on cyno …; assay: flow cytometry, cyno CD47-transfected CHO-K1 cells, 100-0.024 µg/ml
[13] = biological target: T5, human CD47 on cells (human CD47-transfected CHO-K1 cells; HL60; Jurkat) (human, UniProt Q08722 19-323); assay: flow cytometry, human CD47-transfected CHO-K1 cells, 100-0.024 µg/ml
T5 construct: CHO-K1 cells stably transfected with human CD47 full-length cDNA; also endogenous CD47 of the human AML line HL60 and of Jurkat cells; also called human CD47+ cells; human CD47+CHO-K1

[14] = biological target: T1, cynomolgus monkey CD47-Fc; assay: HTRF epitope competition; competitor Tb-labelled h5F9G4 IgG1 on biotinylated cyno CD47-Fc
[15] = biological target: T1, cynomolgus monkey CD47-Fc; assay: competition ELISA: cyno CD47-Fc binding to plate-bound human SIRPa-Fc, % binding
[16] = biological target: T1, cynomolgus monkey CD47-Fc; assay: direct ELISA, coated cyno CD47-Fc, OD450 [D00009 FIG. 6D; D00010 FIG. 6F; D00011 FIG. 6H]
human CD47-Fc [17] = biological target: T2, human CD47-Fc; assay: direct ELISA, coated human CD47-Fc, OD450 [D00009 FIG. 6C; D00010 FIG. 6E; D00011 FIG. 6G]
[18] = biological target: T1, cynomolgus monkey CD47-Fc; assay: HTRF competition with labelled h5F9G4 IgG1 (m11) for cyno CD47-Fc, normalised 665/615 ratio
human CD47-Fc [19] = biological target: T2, human CD47-Fc; assay: HTRF competition with labelled h5F9G4 IgG1 (m11) for human CD47-Fc, normalised 665/615 ratio

Sequence of Insulin (P01308 25-54, chain 1 of 2): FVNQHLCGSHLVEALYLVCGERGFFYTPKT
Sequence of Insulin (P01308 90-110, chain 2 of 2): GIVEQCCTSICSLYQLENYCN

- EC50 (read off the curve) (Insulin): 0.02 µg/mL
Molecule: Bococizumab human IgG1 analogue (antibody)

- binding result [1]: binds
- EC50 (read off the curve) (human CD47-Fc [2]): ~0.06 µg/mL
- IC50 (read off the curve) (human CD47-Fc [3]): ~4 µg/mL
B1: F-E5, human IgG1null (antibody, V domains shown)
VH: EVQLVQSGAEVKKPGESLKISCKGSGYSFTNYNIHWVRQMPGKGLEWMGTIYPGNSDTSYNPKFQGQVTISADKSISTAYLQWSSLKASDTAMYYCARGGKRAMDYWGQGTLVTVSS
VL: DIVMTQSPLSLPVTPGEPASISCRSSQSLLHSNGNTYLGWYLQKPGQSPQLLIYKGSNRFSGVPDRFSGSGSGTDFTLKISRVEAEDVGVYYCMQASQVPYTFGQGTKLEIK
notes: framework limits derived from the Unified CDR definitions; IgG1null; also called Clone F-E5

- Kd [4]: 27.8 nM
B2: FAB VH1.8/1.6DI (Fab, V domains shown)
VH: QVQLVQSGAEVKKPGASVKVSCKASGYTFTNYAMHWVRQAPGQRLEWMGTIYPGNDDTKYNQKFQGRVTITADTSASTAYMELSSLRSEDTAVYYCARGGFRAMDYWGQGTLVTVSS
VL: B1 VL with G34A, L52A, V88A, M94F, Q98H
notes: Fab expressed as soluble monomer; VL carries the two deimmunising alanine substitutions; also called VH1.8/VL1.6-DI Fab

- EC50 (read off the curve) (human CD47-Fc [5]): ~0.06 µg/mL
- binding result [6]: binds
- IC50 (human CD47-Fc [7]): 0.911 µg/mL
- IC50 (read off the curve) (human CD47-Fc [8]): ~0.4 µg/mL
B3: VH1.8/VL1.5, human IgG1null (antibody, V domains shown)
VH: B2 VH
VL: B1 VL with G34A, N35Y, T36N, M94F, Q98H
notes: IgG1null; also called Clone VH1.8/VL1.5

- EC50 (read off the curve) (human CD47-Fc [5]): ~0.06 µg/mL
- binding result [6]: binds
- IC50 (human CD47-Fc [7]): 2.94 µg/mL
- IC50 (read off the curve) (human CD47-Fc [8]): ~2 µg/mL
B4: VH1.8/VL1.4, human IgG1null (antibody, V domains shown)
VH: B2 VH
VL: B1 VL with G34A, N35Y, T36N, M94F
notes: IgG1null; also called Clone VH1.8/VL1.4

- binding result [1]: binds
- IC50 (read off the curve) (human CD47-Fc [3]): ~1 µg/mL
B5: E-A1, human IgG1null (antibody, V domains shown)
VH: B1 VH with N55D, S59R, K101Y, M104E
VL: B1 VL with A96G, Q98H
notes: IgG1null; also called Clone E-A1

- EC50 (read off the curve) (human CD47-Fc [5]): ~0.06 µg/mL
- binding result [6]: binds
- IC50 (human CD47-Fc [7]): 0.56 µg/mL
- IC50 (read off the curve) (human CD47-Fc [8]): ~0.3 µg/mL
B6: VH1.8/VL1.6, human IgG1null (antibody, V domains shown)
VH: B2 VH
VL: B1 VL with G34A, M94F, Q98H
notes: IgG1null; also called Clone VH1.8/VL1.6

- binding result [1]: binds
- EC50 (read off the curve) (human CD47-Fc [2]): ~0.09 µg/mL
- IC50 (read off the curve) (human CD47-Fc [9]): ~4 µg/mL
B7: D6 IgG, human IgG1null (antibody, V domains shown)
VH: B1 VH with K63S, K101V
VL: B1 VL
notes: The text prints both D6 and D-A6 for what reads as the same clone; IgG1null; also called D-A6 IgG; Clone D6

- Kd [4]: 25.9 nM
B8: FAB VH1.8/1.6 (Fab, V domains shown)
VH: B2 VH
VL: B1 VL with G34A, M94F, Q98H
notes: Fab expressed as soluble monomer; also called VH1.8/VL1.6 Fab

- EC50 (read off the curve) (human CD47-Fc [5]): ~0.06 µg/mL
- binding result [6]: binds
- IC50 (human CD47-Fc [7]): 0.928 µg/mL
- IC50 (read off the curve) (human CD47-Fc [8]): ~0.4 µg/mL
B9: VH1.8/VL1.3, human IgG1null (antibody, V domains shown)
VH: B2 VH
VL: B1 VL with G34A, M94F
notes: IgG1null; also called Clone VH1.8/VL1.3

- IC50 (read off the curve) [10]: ~5 nM
- IC50 (read off the curve) (human CD47-Fc [9]): ~0.3 µg/mL
- IC50 (read off the curve) (human CD47-Fc [11]): ~4 nM
B10: IGHV5-51 graft IgG (IGKV2-28/IGHV5-51 graft), human IgG1null (antibody, V domains shown)
VH: B1 VH with I34M, S56D, P62Q, K101Y
VL: B1 VL with L29I, L30V, H31Y, G56V, M94F, A96G, Q98H
notes: IgG1null; also called IGHV5-51 grafted IgG; IGHV5-51-grafted IgG

- Kd [4]: 17.9 nM
B11: FAB VH1.8/1.1 (Fab, V domains shown)
VH: B2 VH
VL: B1 VL with M94F, Q98H
notes: Fab expressed as soluble monomer; also called VH1.8/VL1.1 Fab

- EC50 (read off the curve) (human CD47-Fc [2]): ~0.04 µg/mL
- maximum MFI over background on untransfected CHO-K1 (fold) [12]: > 50 fold
- maximum MFI over background on untransfected CHO-K1 (fold) [13]: > 50 fold
- IC50 (read off the curve) [10]: ~3 nM
- IC50 (read off the curve) (human CD47-Fc [3]): ~0.05 µg/mL
- IC50 (read off the curve) (human CD47-Fc [9]): ~0.05 µg/mL
- IC50 [14]: 0.809 µg/mL
- IC50 (read off the curve) (human CD47-Fc [11]): ~1 nM
- IC50 (human CD47-Fc [7]): 0.601 µg/mL
- IC50 (read off the curve) [15]: ~0.2 µg/mL
- IC50 (read off the curve) (human CD47-Fc [8]): ~0.3 µg/mL
- EC50 (read off the curve) [16]: ~0.06 µg/mL
- EC50 (read off the curve) (human CD47-Fc [17]): ~0.07 µg/mL
- IC50 (read off the curve) [18]: ~0.1 µg/mL
- IC50 (read off the curve) (human CD47-Fc [19]): ~0.3 µg/mL
B12: chimeric anti-CD47 m5F9G4, human IgG1null (antibody, V domains shown)
VH: QVQLQQPGAELVKPGASVMMSCKASGYTFTNYNMHWVKQTPGQGLEWIGTIYPGNDDTSYNQKFKDKATLTADKSSSAAYMQLSSLTSEDSAVYYCARGGYRAMDYWGQGTSVTVSS
VL: DVLMTQTPLSLPVSLGDQASISCRSSQSIVYSNGNTYLGWYLQKPGQSPKLLIYKVSNRFSGVPDRFSGSGSGTDFTLKISRVEAEDLGVYHCFQGSHVPYTFGGGTKVEIK
notes: Murine v-domains on human IgG1null (IgG1 with L234A/L235A/G237A), kappa; also called m5F9G4 IgG1; m59G4

Reference: patent US20260015420A1 (CENTESSA PHARMACEUTICALS UK, published 2026)
